Test [1] concerns the target T1, human CD1a (human, UniProt P06126 17-327).
T1 construct: whole, on cells; also called C1R-CD1a; CR1-CD1a
Put plainly: flow cytometry, phage antibody on C1R cells transfected with CD1a. On the procedure:
In total, three selection rounds were performed and after both the second and third round, phage antibodies were tested for specific binding on a variety of cell-types, i.e., cultured DCs, PBLs, tonsil and synovial fluid cell suspensions, several cell lines including K562, U266, IM9, U937, THP, CEM, Fravel, HL60, Raji, RPMI8226, HepgII, HELA, HT29 and Jurkatt, a C1R cell line transfected with the molecule CD1a, and A431 cell lines transfected with the molecules CD80, CD83, and CD86. For staining of cells, 100 μl of the phage antibodies were blocked by adding 50 μl of PBS containing 4% milk powder for 15 minutes at room temperature. Next, 5×10⁵ cells in 50 μl of PBS containing 1% BSA were added to the blocked phage antibodies and the mixture obtained was incubated on ice for one hour. After that, the obtained mixture was washed three times with 200 μl PBS containing 1% BSA. To detect cell-bound phage antibodies, the cells were incubated with 20 μl of a 1:800 dilution of sheep anti-M13 polyclonal antibody for 20 minutes on ice. Thereafter, the cells were washed with PBS containing 1% BSA and incubated with 20 μl of a 1:700 dilution of PE-conjugated donkey anti-sheep polyclonal antibody for 20 minutes on ice. […]
(Flow cytometry measures light scatter and fluorescence of single cells or particles in a stream.)

The target of test [2] is T2, CD86 (UniProt P42081 24-329, limits assumed).
T2 construct: whole, on cells; also called A431 cell line transfected with CD86
T2 sequence (looked up): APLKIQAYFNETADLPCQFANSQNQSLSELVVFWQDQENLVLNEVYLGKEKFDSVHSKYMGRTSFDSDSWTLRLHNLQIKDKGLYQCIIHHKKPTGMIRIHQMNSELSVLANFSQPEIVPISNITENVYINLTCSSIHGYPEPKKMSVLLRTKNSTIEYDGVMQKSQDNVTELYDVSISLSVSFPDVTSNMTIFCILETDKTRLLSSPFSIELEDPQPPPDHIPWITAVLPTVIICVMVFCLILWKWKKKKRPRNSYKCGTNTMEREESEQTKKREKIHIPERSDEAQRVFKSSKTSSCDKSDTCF
Put plainly: flow cytometry, phage antibody on transfected A431 cells. As for the experimental part: (§1) In total, three selection rounds were performed and after both the second and third round, phage antibodies were tested for specific binding on a variety of cell-types, i.e., cultured DCs, PBLs, tonsil and synovial fluid cell suspensions, several cell lines including K562, U266, IM9, U937, THP, CEM, Fravel, HL60, Raji, RPMI8226, HepgII, HELA, HT29 and Jurkatt, a C1R cell line transfected with the molecule CD1a, and A431 cell lines transfected with the molecules CD80, CD83, and CD86. For staining of cells, 100 μl of the phage antibodies were blocked by adding 50 μl of PBS containing 4% milk powder for 15 minutes at room temperature. Next, 5×10⁵ cells in 50 μl of PBS containing 1% BSA were added to the blocked phage antibodies and the mixture obtained was incubated on ice for one hour. After that, the obtained mixture was washed three times with 200 μl PBS containing 1% BSA. To detect cell-bound phage antibodies, the cells were incubated with 20 μl of a 1:800 dilution of sheep anti-M13 polyclonal antibody for 20 minutes on ice. Thereafter, the cells were washed with PBS containing 1% BSA and incubated with 20 μl of a 1:700 dilution of PE-conjugated donkey anti-sheep polyclonal antibody for 20 minutes on ice.
(§2) To visualize DCs the cells were washed again with PBS containing 1% BSA, stained with 10 μl 1:10 diluted FITC-conjugated anti-CD1a antibody (BD PharMingen) and suspended in 200 μl of PBS containing 1% BSA. Flow cytometric analyses were performed using a FACScan (Becton Dickinson).
(§3) The twenty scFv phage antibodies derived from the selections described above bound exclusively to the cell line transfected with CD1a (see lower right panel of FIG. 2 for binding of the representative scFv phage antibody called SC02-113 to the CD1a-transfected cell line). […]

Test [3] deals with T3, CD80 (UniProt P33681 35-288, limits assumed).
T3 construct: whole, on cells; also called A431 cell line transfected with CD80
T3 sequence (looked up): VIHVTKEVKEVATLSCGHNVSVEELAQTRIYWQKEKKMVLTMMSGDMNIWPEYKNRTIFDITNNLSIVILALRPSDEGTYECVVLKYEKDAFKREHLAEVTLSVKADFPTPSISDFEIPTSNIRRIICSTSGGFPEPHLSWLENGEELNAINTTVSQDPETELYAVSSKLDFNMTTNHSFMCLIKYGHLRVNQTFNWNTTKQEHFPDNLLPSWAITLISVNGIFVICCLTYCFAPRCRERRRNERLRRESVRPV
The description is as above. As for the experimental part:
as §1, §2, §3

Test [4] addresses T4, CD83 (UniProt Q01151 20-205, limits assumed).
T4 construct: whole, on cells; also called A431 cell line transfected with CD83
T4 sequence (looked up): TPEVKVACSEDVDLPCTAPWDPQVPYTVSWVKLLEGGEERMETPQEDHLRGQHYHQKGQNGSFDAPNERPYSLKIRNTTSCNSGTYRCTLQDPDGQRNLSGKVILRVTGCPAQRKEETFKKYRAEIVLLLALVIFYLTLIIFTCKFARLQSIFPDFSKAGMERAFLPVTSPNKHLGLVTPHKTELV
Described as above. On the procedure:
as §1, §2, §3

T1 sequence (P06126 17-327): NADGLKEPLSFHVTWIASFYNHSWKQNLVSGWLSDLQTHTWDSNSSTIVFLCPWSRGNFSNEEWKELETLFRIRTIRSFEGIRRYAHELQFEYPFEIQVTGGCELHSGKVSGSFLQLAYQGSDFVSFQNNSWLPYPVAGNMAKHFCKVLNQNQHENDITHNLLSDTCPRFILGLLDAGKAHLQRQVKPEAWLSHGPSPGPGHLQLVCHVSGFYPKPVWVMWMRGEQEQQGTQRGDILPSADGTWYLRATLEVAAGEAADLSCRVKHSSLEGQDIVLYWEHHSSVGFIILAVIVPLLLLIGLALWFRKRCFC

B1: scFv phage antibody SC02-115 (scFv)
scFv: QVQLVQSGAEAKKPGASVKVSCKASGYTFTGYYMHWVRQAPGQGLEWMGWISAYNGNTNYAQKLQGRVTMTTDTSTSTAYMELRSLRSDDTAVYYCARSQMPSYFDYWGQGTLVTVSRGGGGSGGGGSGGGGSSELTQDPAVSVALGQTVRITCQGDSLRSYYASWYQQKPGQAPVLVIYGKNNRPSGIPDRFSGSSSGNTASLTITGAQAEDEADYYCNSRDSSGNHVVFGGGTKLTVLG
For the molecule B1, the binding result in test [1] is listed as “binds”; in test [2], “no binding”; in test [3], “no binding”; in test [4] it was “no binding”.

Values taken from patent US20060257397A1 (CRUCELL HOLLAND B V, published 2006).
